Test results as given in US20180128830A1, “DETECTION OF HUMAN CYTOMEGALOVIRUS IN BREAST CANCER” (priority 2015, published 2018).

Key:
Format in all cases: cell-based, human
MTSS1 = MTSS1 immunofluorescence microscopy; conditions: 100 ng/mL, 96 hrs
Procedure: MDA-MB-231 cells were seeded onto FBS-coated glass coverslips at a density of 2.0×10^5 cells/well and cultured for 48 hrs at 37° C. Cells were treated with 100 ng/mL of purified recombinant cmvIL-10 for 96 hrs, then fixed with 2% paraformaldehyde in DPBS for 20 min, washed, permeabilized with 0.2% Triton-X-100 in PBS for 15 min. The cells were washed and blocked with 10% FBS for 1 hr at 37° C., then incubated with anti-MTSS-1 antibody at a 1:100 dilution for 1 hr at 37° C. followed by the addition of goat anti-mouse TRITC secondary antibody at a 1:150 dilution for 30 min (Life Technologies) and Alexa Fluor 488 phalloidin (Molecular Probes, Eugene, Oreg.). Coverslips were washed and excess fluid was removed before inverting the coverslip onto a glass slide containing 20 μL of DAPI-containing Prolong Gold mounting medium (Life Technologies, Grand Island, N.Y.). Images were taken on a Zeiss AX10 Imager.A1 microscope (Carl Zeiss Inc., Oberkochen, Germany) using AxioVision 4.7.2 imaging software.

Stat1 = test: Western blot for Stat1 phosphorylation in MDA-MB-231 cells; conditions: 100 ng/ml, 15 min
Procedure: For western blotting, cells were treated with 100 ng/ml cmvIL-10, hIL-10, IFNγ or PBS for 15 min, then harvested into cell lysis buffer (150 mM NaCl, 20 mM HEPES, 0.5% Triton-X-100, 1 mM NaOV4, 1 mM EDTA, 0.1% NaN3). Lysates were clarified, proteins were separated via SDS-PAGE, and then transferred to a nitrocellulose membrane. Then membrane was incubated in blocking solution (5% milk+1×TBS-T) for 1 hr, then probed with primary antibody at a 1:1000 dilution (total Stat3 or pStat3, total Stat1 or pStat1) in blocking solution overnight at 4° C. After washing, the membranes were incubated with a 1:2000 dilution of appropriate AP-conjugated secondary antibody and bands were detected using Western Blue stabilized AP substrate (Promega, Madison, Wis.). For analysis of secreted proteins, supernatants were collected at various time points, analyzed by SDS-PAGE and then immunoblotted as above for cmvIL-10, hIL-10, or serpin E1/PAI.

MMP-3 [1] = test: MMP-3 ELISA on cell lysates; conditions: 10 ng/ml, 48 hours
Procedure: DuoSet ELISA kits (R&D Systems) were used to quantify uPAR, PAI-1, and MMP-3. For uPAR and PAI-1 measurement, MDA cells were seeded in triplicate in 96-well plate at 5.0×10^4 cell/mL density with complete L-15 media and treated with 10 ng/mL of either cmvIL-10 or hIL-10 for the indicated times and supernatants were collected daily. The ELISA was carried out on supernatants according to manufacturer's instructions using and following the addition of substrate and stop solution, absorbance of the plate was measured at 450 nm using a Dynex Opsys MR microplate reader. Sample concentrations were interpolated from a standard curve using linear regression analysis. For cell-associated MMP-3, MDA cells were seeded in 96-well plates and treated with cmvIL-10 as above. Cells were treated with cell lysis buffer (150 mM NaCl, 20 mM HEPES, 0.5% Triton-X-100, 1.0 mM NaOV4, 1.0 mM EDTA, 0.1% NaN3) supplemented with 1× protease inhibitors (Calbiochem, EMD Chemicals, San Diego Calif.) and were collected daily for the indicated time points. The lysates were evaluated for MMP-3 according to the manufacturer's instructions (R&D Systems).

MDA-MB-231 cells [2] = test: Cell proliferation, Cell Titer Glo
Procedure: (§1) Cells were seeded into 96-well dishes at a density of 1×10^4 cell per well in complete medium with varying doses of cmvIL-10, and then cell viability measured at the indicated time points using the Cell Titer Glo Assay kit according to manufacturer's instructions (Promega). DNA synthesis was measured in cells prepared in the same way using the BrdU Cell Proliferation ELISA Kit (Roche, Basel, Switzerland). For experiments using inhibitors, cells were cultivated in 96-well dishes as above with a final concentration of 10 μM inhibitor and BrdU incorporation evaluated after 72 hrs. For cell counts, cells were seeded into 6-well plates at a density of 2×10^5 cells per well, harvested via trypsinization, and counted using a hemacytometer at the indicated time points. The TACS Annexin V-FITC Detection Kit (Trevigen, Gaithersburg, Md.) was used to stain cells harvested from 70% confluent T75 flasks that had been treated with 100 μM etoposide for 48 hrs in the presence or absence of 100 ng/ml cmvIL-10. Cells were then analyzed via flow cytometry to detect fluorescence. For viability assays, Cell Titer Glo reagent was utilized to quantify cells that had been seeded into 96-well dishes at a density of 1×10^4 cell per well in complete medium with varying doses of etoposide in the presence or absence of 100 ng/ml cmvIL-10 as indicated

MMP-3 [3] = test: MMP-3 western blotting and zymography; conditions: over time
Procedure: Confluent T-75 flasks of MDA-MB-231 cells were treated with 10 ng/mL cmvIL-10 (R&D systems) for the indicated times, then scraped and harvested into cell lysis buffer (150 mM NaCl, 20 mM HEPES, 0.5% Triton-X-100, 1.0 mM NaOV4, 1.0 mM EDTA, 0.1% NaN3) containing 1× protease inhibitors (Calbiochem). Cell lysates were clarified via centrifugation, heated at 70° C. for 10 min in reducing buffer, and the proteins separated on a 4-12% Tris-Base SDS-PAGE gel (Life Technologies, Grand Island, N.Y.). After transfer to nitrocellulose, the membrane was incubated in blocking solution (5% milk+TBS) for 1 hr at room and then probed with primary antibody: 1:1000 dilution for MMP-3 or MTSS-1 antibodies (Santa Cruz), or MAPK antiserum (Cell Signaling Tech, Danvers, Mass.), in blocking solution overnight, oscillating on a platform rocker at 4.0° C. After three washes, the membranes were incubated with a 1:2000 dilution of appropriate AP-conjugated secondary antibody on a platform rocker at room temperature for 1 hr. Protein bands were detected using western blue stabilized AP substrate (Promega, Madison, Wis.). For zymography, cell lysates were denatured in SDS buffer under non-reducing conditions without heat, and run on a 4-16% Zymogram gel using Tris-Glycine SDS running buffer according to manufacturer's instructions. […]

MDA-MB-231 cells [4] = test: Apoptosis, Annexin V-FITC flow cytometry; conditions: 100 ng/ml cmvIL-10 plus 100 μM etoposide, 48 hrs
Procedure: as §1

B1: cmvIL-10 (protein)
chain: ATTTTIKNTKPQCRPEDYATRLQDLRVTFHRVKPTLQREDDYSVWLDGTVVKGCWGCSVMDWLLRRYLEIVFPAGDHVYPGLKTELHSMRSTLESIYKDMRQCPLLGCGDKSVISRLSQEAERKSDNGTRKGLSELDTLFSRLEEYLHSRK
MTSS1 protein (immunofluorescence) (MTSS1): dramatic reduction in the amount of MTSS1 protein
Stat1 phosphorylation (Stat1): did not globally activate other cellular effectors, such as Stat1
cell-associated MMP-3 (cell lysates) (MMP-3 [1]): increased significantly
cell growth (cell viability, RLU) (MDA-MB-231 cells [2]; 100 ng/ml, 72 hrs): significantly higher cell growth than control cultures
cell growth (cell viability, RLU) (MDA-MB-231 cells [2]; increasing doses of cmvIL-10): greater growth than control cells
amount of active MMP-3 enzyme (zymography, casein digestion) (MMP-3 [3]): also increased
total MMP-3 protein (western blot) (MMP-3 [3]): increase in total MMP-3 protein
cells stained positive for Annexin V (MDA-MB-231 cells [4]): 14.8%
